Data on three molecules can be found in patent US20240262905A1 (PANDION OPERATIONS, published 2024).

The target of experiment [1] is T1, human DSG-3 (human, UniProt P32926 50-615, limits assumed).
T1 construct: Soluble analyte (Octet) and plate coat (ELISA); also called hDSG-3
T1 sequence (looked up): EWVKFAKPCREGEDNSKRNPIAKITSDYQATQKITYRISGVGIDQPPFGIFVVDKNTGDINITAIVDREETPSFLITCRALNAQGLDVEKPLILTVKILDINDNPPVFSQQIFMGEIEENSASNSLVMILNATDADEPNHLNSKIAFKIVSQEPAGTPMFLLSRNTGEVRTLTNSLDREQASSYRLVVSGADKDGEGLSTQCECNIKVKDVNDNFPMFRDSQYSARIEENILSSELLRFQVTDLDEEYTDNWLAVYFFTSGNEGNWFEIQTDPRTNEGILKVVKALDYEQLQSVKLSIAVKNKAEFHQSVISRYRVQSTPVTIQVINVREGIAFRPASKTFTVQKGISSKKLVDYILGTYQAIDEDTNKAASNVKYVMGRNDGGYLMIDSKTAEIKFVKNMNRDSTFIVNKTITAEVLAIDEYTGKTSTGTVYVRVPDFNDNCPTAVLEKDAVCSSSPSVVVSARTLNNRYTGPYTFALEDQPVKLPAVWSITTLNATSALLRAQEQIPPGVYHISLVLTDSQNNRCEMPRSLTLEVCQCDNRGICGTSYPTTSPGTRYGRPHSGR
Briefly: bridging ELISA, plate coated with hDSG-3, test article at 1 nM, then his-tagged hCD25 1 ug/mL, anti-His-HRP detection.

Experiment [2] concerns the target T2, human CD25 (human, UniProt P01589 22-213, limits assumed).
T2 construct: construct not described
T2 sequence (looked up): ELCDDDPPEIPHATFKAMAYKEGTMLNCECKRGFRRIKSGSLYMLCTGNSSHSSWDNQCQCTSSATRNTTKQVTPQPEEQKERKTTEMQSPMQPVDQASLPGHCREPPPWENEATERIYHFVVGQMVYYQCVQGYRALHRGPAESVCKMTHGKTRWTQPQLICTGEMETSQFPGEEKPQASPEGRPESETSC
Kind of experiment: BLI (Octet), test article captured on anti-human Fc biosensors, 1:1 global fit (method text names desmogleins as analyte; result told for human CD25). Background: In BLI a coated tip is dipped into the sample, and binding shifts an interference pattern.

Experiment [3] deals with T1, human DSG-3. Kind of experiment: bridging ELISA, plate coated with hDSG-3, test article at 10 nM, then his-tagged hCD25 1 ug/mL, anti-His-HRP detection. (ELISA stands for enzyme-linked immunosorbent assay.)
In experiment [4] the target is T1, human DSG-3. Kind of experiment: bridging ELISA, plate coated with hDSG-3, test article at 100 nM, then his-tagged hCD25 1 ug/mL, anti-His-HRP detection.
Experiment [5] has as its target T3, Insulin.
T3 construct: Plate coat in the polyreactivity ELISA
Kind of experiment: ELISA, plate coated with insulin 5 ug/mL, test article at 100 nM, anti-human Fc-HRP detection.

In experiment [6] the target is T4, desmoglein-2 (Homo sapiens (Human), UniProt Q14126 50-609).
T4 construct: also called DSG-2
T4 sequence: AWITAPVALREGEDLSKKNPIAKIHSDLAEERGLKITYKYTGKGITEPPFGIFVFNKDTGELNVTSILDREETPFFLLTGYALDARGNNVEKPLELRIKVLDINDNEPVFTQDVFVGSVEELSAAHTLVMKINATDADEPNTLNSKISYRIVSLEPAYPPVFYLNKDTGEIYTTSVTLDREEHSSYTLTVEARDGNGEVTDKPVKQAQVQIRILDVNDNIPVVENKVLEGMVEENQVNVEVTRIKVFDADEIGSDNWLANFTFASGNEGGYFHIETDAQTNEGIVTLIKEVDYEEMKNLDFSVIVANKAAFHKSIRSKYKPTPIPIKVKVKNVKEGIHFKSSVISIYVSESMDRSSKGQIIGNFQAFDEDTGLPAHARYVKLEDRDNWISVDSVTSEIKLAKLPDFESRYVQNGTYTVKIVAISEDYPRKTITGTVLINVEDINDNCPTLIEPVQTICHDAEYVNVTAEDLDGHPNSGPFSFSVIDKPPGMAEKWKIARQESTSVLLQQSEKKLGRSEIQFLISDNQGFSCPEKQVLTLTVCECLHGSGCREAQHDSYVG
Briefly: BLI (Octet), test article captured on anti-human Fc biosensors, desmoglein as analyte, 1:1 global fit.

Experiment [7] deals with T5, desmoglein-1 (Homo sapiens (Human), UniProt Q02413 50-548).
T5 construct: also called DSG-1
T5 sequence: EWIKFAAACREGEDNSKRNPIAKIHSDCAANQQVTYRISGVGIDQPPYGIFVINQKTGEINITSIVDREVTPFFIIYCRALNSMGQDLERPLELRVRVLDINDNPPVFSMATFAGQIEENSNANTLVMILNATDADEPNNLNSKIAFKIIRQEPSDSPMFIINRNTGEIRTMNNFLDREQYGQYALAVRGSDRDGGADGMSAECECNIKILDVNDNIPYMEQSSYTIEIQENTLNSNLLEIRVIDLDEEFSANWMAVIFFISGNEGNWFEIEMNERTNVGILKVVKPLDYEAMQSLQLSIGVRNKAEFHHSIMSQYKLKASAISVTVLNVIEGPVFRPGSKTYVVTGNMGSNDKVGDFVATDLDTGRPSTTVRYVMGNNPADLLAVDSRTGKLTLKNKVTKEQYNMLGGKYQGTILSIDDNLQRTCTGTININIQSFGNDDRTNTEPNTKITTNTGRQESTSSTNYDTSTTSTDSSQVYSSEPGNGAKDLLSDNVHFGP
The experiment is described as above.

In experiment [8] the target is T6, desmoglein-4 (Homo sapiens (Human), UniProt Q86SJ6 50-631).
T6 construct: also called DSG-4
T6 sequence: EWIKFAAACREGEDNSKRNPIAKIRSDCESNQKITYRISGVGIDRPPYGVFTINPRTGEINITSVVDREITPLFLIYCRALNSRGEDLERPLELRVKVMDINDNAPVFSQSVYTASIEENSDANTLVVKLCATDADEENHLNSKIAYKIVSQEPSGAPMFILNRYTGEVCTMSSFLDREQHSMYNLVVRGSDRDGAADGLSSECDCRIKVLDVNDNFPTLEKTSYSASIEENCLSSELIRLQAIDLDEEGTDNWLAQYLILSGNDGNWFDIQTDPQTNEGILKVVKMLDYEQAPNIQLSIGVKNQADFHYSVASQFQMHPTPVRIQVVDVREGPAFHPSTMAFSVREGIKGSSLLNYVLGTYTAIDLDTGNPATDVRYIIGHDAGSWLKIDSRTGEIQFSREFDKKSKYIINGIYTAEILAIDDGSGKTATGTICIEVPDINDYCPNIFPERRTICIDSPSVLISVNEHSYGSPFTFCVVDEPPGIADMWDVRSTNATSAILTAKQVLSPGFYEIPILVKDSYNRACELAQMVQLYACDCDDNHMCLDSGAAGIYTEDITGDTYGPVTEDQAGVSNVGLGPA
Described as above.

Experiment [9] concerns the target T1, human DSG-3. The experiment is described as above.

Usually Kd stands for a measure of binding affinity in units of concentration. Low values mean a tighter complex, high ones a looser complex.

B1: IL2DSGAB5 (other)
heavy: QVQLQESGPGPVKPSGTLSLTCGVSGGSISSNHWWTWVRQPPGKGLEWIGEIYHNGSTFLNPSLKSRVTISVDKSNNQFSLKLTSVTAADTAVYYCARGWHRTGFRGYPSHWYFDLWGRGTLVSVSSASTKGPSVFPLAPSSKSTSGGTAALGCLVKDYFPEPVTVSWNSGALTSGVHTFPAVLQSSGLYSLSSVVTVPSSSLGTQTYICNVNHKPSNTKVDKKVEPKSCDKTHTCPPCPAPEAAGAPSVFLFPPKPKDTLMISRTPEVTCVVVDVSHEDPEVKFNWYVDGVEVHNAKTKPREEQYNSTYRVVSVLTVLHQDWLNGKEYKCKVSNKALPAPIEKTISKAKGQPREPQVYTLPPSREEMTKNQVSLTCLVKGFYPSDIAVEWESNGQPENNYKTTPPVLDSDGSFFLYSKLTVDKSRWQQGNVFSCSVMHEALHNHYTQKSLSLSPG
light: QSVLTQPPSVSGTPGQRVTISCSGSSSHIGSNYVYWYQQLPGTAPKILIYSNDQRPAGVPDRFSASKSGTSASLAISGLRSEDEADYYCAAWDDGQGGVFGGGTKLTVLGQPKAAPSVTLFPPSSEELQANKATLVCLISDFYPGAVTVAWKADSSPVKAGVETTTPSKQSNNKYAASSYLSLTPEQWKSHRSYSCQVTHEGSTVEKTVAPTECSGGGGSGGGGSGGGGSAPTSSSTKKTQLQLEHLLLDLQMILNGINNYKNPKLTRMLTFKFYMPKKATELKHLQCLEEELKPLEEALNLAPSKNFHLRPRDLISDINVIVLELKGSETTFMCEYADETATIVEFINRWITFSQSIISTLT
notes: SD1 anti-desmoglein human IgG1 with the IL-2 mutein fused to the C-terminus of the light chain; also called TL2DSGAB5
On to B1, for which the “absorbance (OD450 nm)” value was found to be 0.27 in experiment [1], 0.483 in [3] and 0.965 in experiment [4]. In [2], this molecule came in with a Kd of 3.4 nM.

B2: IL2DSGAB8 (other)
heavy: QVQLVQSGGGVVQSGRSLRLSCAASGFTFSDYAMHWVRQAPGKGLEWVAVISHGGTKKYTGDSVKGRFIISRDNSKNTVFLQMNSLRVEDTAVYYCARDRVEGYVWGGTFDHWGQGTPVTVSSASTKGPSVFPLAPSSKSTSGGTAALGCLVKDYFPEPVTVSWNSGALTSGVHTFPAVLQSSGLYSLSSVVTVPSSSLGTQTYICNVNHKPSNTKVDKKVEPKSCDKTHTCPPCPAPEAAGAPSVFLFPPKPKDTLMISRTPEVTCVVVDVSHEDPEVKFNWYVDGVEVHNAKTKPREEQYNSTYRVVSVLTVLHQDWLNGKEYKCKVSNKALPAPIEKTISKAKGQPREPQVYTLPPSREEMTKNQVSLTCLVKGFYPSDIAVEWESNGQPENNYKTTPPVLDSDGSFFLYSKLTVDKSRWQQGNVFSCSVMHEALHNHYTQKSLSLSPG
light: ELVLTQPPSVPVAPGQTANISCGGNNIGRQTVHWYQQKPGQAPVLVVFDDSDRPAGIPERFSGSNSGNTATLTISRVEAGDEADYYCQVWDSSSDHVVFGGGTQLTVLGQPKAAPSVTLFPPSSEELQANKATLVCLISDFYPGAVTVAWKADSSPVKAGVETTTPSKQSNNKYAASSYLSLTPEQWKSHRSYSCQVTHEGSTVEKTVAPTECSAEEEKAEEEKAEEEKAEEEKAPTSSSTKKTQLQLEHLLLDLQMILNGINNYKNPKLTRMLTFKFYMPKKATELKHLQCLEEELKPLEEALNLAPSKNFHLRPRDLISDINVIVLELKGSETTFMCEYADETATIVEFINRWITFSQSIISTLT
Turning to B2, the “absorbance (OD450 nm)” value in experiment [1] came to 0.29; in experiment [3], 0.41; in [4], 1. This molecule gave a dissociation constant (Kd) in experiment [2] of 3.5 nM.

B3: IL2DSGAB1 (other)
heavy: QVQLQESGPGPVKPSGTLSLTCGVSGGSISSNHWWTWVRQPPGKGLEWIGEIYHNGSTFLNPSLKSRVTISVDKSNNQFSLKLTSVTAADTAVYYCARGWHRTGFRGYPSHWYFDLWGRGTLVSVSSASTKGPSVFPLAPSSKSTSGGTAALGCLVKDYFPEPVTVSWNSGALTSGVHTFPAVLQSSGLYSLSSVVTVPSSSLGTQTYICNVNHKPSNTKVDKKVEPKSCDKTHTCPPCPAPEAAGAPSVFLFPPKPKDTLMISRTPEVTCVVVDVSHEDPEVKFNWYVDGVEVHNAKTKPREEQYNSTYRVVSVLTVLHQDWLNGKEYKCKVSNKALPAPIEKTISKAKGQPREPQVYTLPPSREEMTKNQVSLTCLVKGFYPSDIAVEWESNGQPENNYKTTPPVLDSDGSFFLYSKLTVDKSRWQQGNVFSCSVMHEALHNHYTQKSLSLSPGGGGGSAPTSSSTKKTQLQLEHLLLDLQMILNGINNYKNPKLTRMLTFKFYMPKKATELKHLQCLEEELKPLEEALNLAPSKNFHLRPRDLISDINVIVLELKGSETTFMCEYADETATIVEFINRWITFSQSIISTLT
light: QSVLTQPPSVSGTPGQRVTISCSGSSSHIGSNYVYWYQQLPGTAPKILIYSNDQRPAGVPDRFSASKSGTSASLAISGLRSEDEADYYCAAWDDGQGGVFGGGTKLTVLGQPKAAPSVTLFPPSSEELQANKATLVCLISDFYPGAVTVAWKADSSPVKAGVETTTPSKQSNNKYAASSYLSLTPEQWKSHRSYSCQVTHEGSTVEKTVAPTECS
notes: SD1 anti-desmoglein human IgG1 with the IL-2 mutein fused to the C-terminus of the heavy chain; copies: 2 + 2
On to B3, for which the “absorbance (OD450 nm)” value worked out at 0.31 in experiment [1], 0.78 in experiment [3] and 1.3 in [4]. In addition, the Insulin polyreactivity score in [5] amounted to 2.2. The Kd came to 4.2 nM in experiment [6], 13 nM in experiment [7], 10 nM in [8] and 19 nM in [9].
